We go through five variants from PMC4437028 (2015).

B1: mouse PTPδ Ig1-Fn1 (residues 28-418), splice variant meA9B+ [modified: N-linked glycans] [mouse] / mouse Slitrk2 LRR1 (first leucine-rich repeat of Slit and Trk-like family member 2), wild type [modified: N-linked glycans; N-linked … (parent complex)
chain 1: ETPPRFTRTPVDQTGVSGGVASFICQATGDPRPKIVWNKKGKKVSNQRFEVIEFDDGSGSVLRIQPLRTPRDEAIYECVASNNVGEISVSTRLTVLREDQIPRGFPTIDMGPQLKVVERTRTATMLCAASGNPDPEITWFKDFLPVDTSNNNGRIKQLRSESIGGTPIRGALQIEQSEESDQGKYECVATNSAGTRYSAPANLYVRELREVRRVPPRFSIPPTNHEIMPGGSVNITCVAVGSPMPYVKWMLGAEDLTPEDDMPIGRNVLELNDVRQSANYTCVAMSTLGVIEAIAQITVKALPKPPGTPVVTESTATSITLTWDSGNPEPVSYYIIQHKPKNSEEPYKEIDGIATTRYSVAGLSPYSDYEFRVVAVNNIGRGPASEPVLTQK
chain 2: MLSGVWFLSVLTVAGILQTESRKTAKDICKIRCLCEEKENVLNINCENKGFTTVSLLQPPQYRIYQLFLNGNLLTRLYPNEFVNYSNAVTLHLGNNGLQEIRPGAFSGLKTLKRLHLNNNKLEVLREDTFLGLESLEYLQADYNYISTIEAGAFSKLNKLKVLILNDNLLLSLPSNVFRFVLLTHLDLRGNRLKVMPFAGVLEHIGGIMEIQLEENPWNCTCDLLPLKAWLDTITVFVGEIVCETPFRLHGKDVTQLTRQDLCPRK

The variants in this test derive from B1. The test is described as follows: SPR equilibrium analysis; point at 4 µM PTPδ Ig1-Fn1 (highest concentration); parent: 600; read off a plot.
In the case of chain 2 MLSGVWFLSVLTVAGILQTESRKTAKDICKIRCLCEEKENVLNINCENKGFTTVSLLQPPQYRIYQLFLNGNLLTRLYPNEFVNYSNAVTLHLGNNGLQEIRPGAFSGLKTLKRLHLNNNKLEVLREDTFLGLESLEYLQADYNYISTIEAGAFSKLNKLKVLILNDNLLLSLPSNVFRFVLLTHLALRGNRLKVMPFAGVLEHIGGIMEIQLEENPWNCTCDLLPLKAWLDTITVFVGEIVCETPFRLHGKDVTQLTRQDLCPRK [chain 2 D187A], the response is approximately 120 Response unit.

On to chain 2 MLSGVWFLSVLTVAGILQTESRKTAKDICKIRCLCEEKENVLNINCENKGFTTVSLLQPPQYRIYQLFLNGNLLTRLYPNEFVNYSNAVTLHLGNNGLQEIRPGAFSGLKTLKALHLNNNKLEVLREDTFLGLESLEYLQADYNYISTIEAGAFSKLNKLKVLILNDNLLLSLPSNVFRFVLLTHLDLRGNRLKVMPFAGVLEHIGGIMEIQLEENPWNCTCDLLPLKAWLDTITVFVGEIVCETPFRLHGKDVTQLTRQDLCPRK [chain 2 R114A], for which the response was approximately 490 Response unit.

Regarding chain 2 MLSGVWFLSVLTVAGILQTESRKTAKDICKIRCLCEEKENVLNINCENKGFTTVSLLQPPQYRIYQLFLNGNLLTRLYPNEFVNYSNAVTLHLGNNGLQEIRPGAFSGLKTLKRLHLNNNKLEVLREDTFLGLESLEYLQADYNYISTIEAGAFSKLNKLKVLILNDNLLLSLPSNVFRFVLLTHLDLRGNRLKVMPFAGVLEHIGGIMEIQLEENPWNCTCDLLPLKAWLDTITVFVGEIVCETPARLAGKDVTQLTRQDLCPRK [chain 2 F247A, chain 2 H250A], the response is approximately 460 Response unit.

Turning to chain 2 MLSGVWFLSVLTVAGILQTESRKTAKDICKIRCLCEEKENVLNINCENKGFTTVSLLQPPQYRIYQLFLNGNLLTRLYPNEFVNYSNAVTLHLGNNGLQEIRPGAFSGLKTLKRLHLNNNKLEVLREDTFLGLESLEYLQADYNYISTIEAGAFSKLNKLKVLILNDNLLLSLPSNVFRFVLLTHLDLRGNRLKVMPFAGVLEHIGGIMEIQLEANPWNCTCDLLPLKAWLDTITVFVGEIVCETPFRLHGKDVTQLTRQDLCPRK [chain 2 E215A], the response was approximately 210 Response unit.

For the variant chain 2 MLSGVWFLSVLTVAGILQTESRKTAKDICKIRCLCEEKENVLNINCENKGFTTVSLLQPPQYRIYQLFLNGNLLTRLYPNEFVNYSNAVTLHLGNNGLQEIRPGAFSGLKTLKRLHLNNNKLEVLREDTFLGLESLEYLQADYNYISTIEAGAFSKLNKLKVLILNANLLLSLPSNVFRFVLLTHLDLRGNRLKVMPFAGVLEHIGGIMEIQLEENPWNCTCDLLPLKAWLDTITVFVGEIVCETPFRLHGKDVTQLTRQDLCPRK [chain 2 D167A], the response was approximately 100 Response unit.
